Reference: patent US20260250421A1 (BIOCYTOGEN PHARMACEUTICALS BEIJING, published 2026)
Residue numbers refer to the chain shown, from its start.

T1: His-tagged human PTK7 protein (human, UniProt Q13308 31-704)
T1 construct: Bought protein; also called hPTK7-His; not shown: His tag
T1 sequence: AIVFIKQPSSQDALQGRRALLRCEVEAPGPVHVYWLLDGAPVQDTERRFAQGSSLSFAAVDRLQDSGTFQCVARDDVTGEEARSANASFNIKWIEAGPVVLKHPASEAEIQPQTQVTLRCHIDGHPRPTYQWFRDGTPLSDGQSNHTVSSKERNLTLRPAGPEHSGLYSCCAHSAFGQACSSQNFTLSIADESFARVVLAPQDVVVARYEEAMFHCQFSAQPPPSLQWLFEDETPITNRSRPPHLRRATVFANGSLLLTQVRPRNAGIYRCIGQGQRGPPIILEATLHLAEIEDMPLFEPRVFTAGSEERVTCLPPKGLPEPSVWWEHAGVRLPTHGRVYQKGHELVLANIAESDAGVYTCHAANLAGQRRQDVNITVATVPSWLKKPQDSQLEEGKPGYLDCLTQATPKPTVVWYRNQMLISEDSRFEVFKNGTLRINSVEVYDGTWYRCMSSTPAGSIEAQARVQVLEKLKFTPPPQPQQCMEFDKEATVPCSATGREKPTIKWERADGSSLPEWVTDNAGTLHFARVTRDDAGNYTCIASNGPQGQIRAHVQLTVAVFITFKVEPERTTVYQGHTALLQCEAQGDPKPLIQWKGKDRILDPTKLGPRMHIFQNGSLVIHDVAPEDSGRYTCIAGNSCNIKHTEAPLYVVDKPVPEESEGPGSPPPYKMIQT

T2: human PTK7 on human cancer cell lines (human, UniProt Q13308 31-1070)
T2 construct: Endogenous PTK7 of human tumour cell lines; also called PTK7 on A-431, NCI-H520, NCI-N87, SK-OV-3, BT-20, HCC1954, NCI-H226, NCI-H358, HCT116, PC-3, NCI-H292, NCI-H1975 cells
T2 sequence: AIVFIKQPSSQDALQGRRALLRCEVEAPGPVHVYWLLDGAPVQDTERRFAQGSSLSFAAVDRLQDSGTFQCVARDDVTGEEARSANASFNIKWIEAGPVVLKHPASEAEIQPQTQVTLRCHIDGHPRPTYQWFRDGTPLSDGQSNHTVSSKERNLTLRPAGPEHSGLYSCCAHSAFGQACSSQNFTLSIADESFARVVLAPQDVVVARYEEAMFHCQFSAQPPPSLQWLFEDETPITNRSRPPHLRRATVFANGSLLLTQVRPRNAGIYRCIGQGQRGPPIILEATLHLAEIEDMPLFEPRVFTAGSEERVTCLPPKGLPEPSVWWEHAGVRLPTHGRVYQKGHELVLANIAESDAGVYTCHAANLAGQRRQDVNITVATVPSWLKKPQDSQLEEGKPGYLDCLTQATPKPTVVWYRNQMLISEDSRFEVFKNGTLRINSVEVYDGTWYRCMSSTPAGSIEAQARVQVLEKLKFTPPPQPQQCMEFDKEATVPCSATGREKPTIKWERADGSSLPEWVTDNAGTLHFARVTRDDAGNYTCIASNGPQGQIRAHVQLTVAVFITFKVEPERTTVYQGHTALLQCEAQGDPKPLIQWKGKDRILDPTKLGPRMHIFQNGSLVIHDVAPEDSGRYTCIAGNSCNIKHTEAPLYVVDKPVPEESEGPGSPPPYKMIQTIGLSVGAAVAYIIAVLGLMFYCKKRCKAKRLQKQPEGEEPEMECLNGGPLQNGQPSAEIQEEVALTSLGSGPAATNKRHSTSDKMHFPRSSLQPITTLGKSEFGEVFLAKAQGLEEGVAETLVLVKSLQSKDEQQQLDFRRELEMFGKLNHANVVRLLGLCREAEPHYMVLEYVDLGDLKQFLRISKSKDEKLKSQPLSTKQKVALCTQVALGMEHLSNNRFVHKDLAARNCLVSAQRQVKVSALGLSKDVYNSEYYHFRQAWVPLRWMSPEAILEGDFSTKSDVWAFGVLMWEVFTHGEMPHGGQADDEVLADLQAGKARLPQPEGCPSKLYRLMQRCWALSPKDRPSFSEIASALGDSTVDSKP

B1: 1A11 (antibody, V domains shown)
VH: QVQLVQSGPGLVKPSETLSLTCTVSGGSINSYYWNWIRQPPGKGLEWIGYIYYSGSTNYNPSLKSRVTISVDTSKNQFSLKLSSVTAADTAVYYCARDPHDYIRGHFDLWGRGTLFTVSS
VL: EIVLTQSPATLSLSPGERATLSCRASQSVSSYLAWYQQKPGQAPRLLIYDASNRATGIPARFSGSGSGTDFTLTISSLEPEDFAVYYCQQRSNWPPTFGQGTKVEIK
notes: also called anti-PTK7 antibody 1A11
B2: 3C4 (antibody, V domains shown)
VH: QVQLEQSRAEVKKPGESLRISCKGSGYSFTSYWISWVRQMPGKGLEWMGRIDPSDSYTNYNPSFQGHVTISADKSISTAYLQWSSLKASDTAMYYCARRDGSYFDFDYWGQGTLVTVSS
VL: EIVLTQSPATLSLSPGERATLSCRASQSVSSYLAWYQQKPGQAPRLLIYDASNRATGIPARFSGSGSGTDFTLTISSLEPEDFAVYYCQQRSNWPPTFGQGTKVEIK
notes: also called anti-PTK7 antibody 3C4
B3: 3E6 (antibody, V domains shown)
VH: B2 VH with E5V, Q6E, R8G, K23R, N59K, N61S, S102D
VL: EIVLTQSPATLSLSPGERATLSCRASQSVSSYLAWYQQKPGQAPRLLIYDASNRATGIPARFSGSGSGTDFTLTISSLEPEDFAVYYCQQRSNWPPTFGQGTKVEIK
notes: also called anti-PTK7 antibody 3E6
B4: 1A7 (antibody, human IgG1, V domains shown)
VH: QVQLVESGGGVVQPGRSLRLSCAASGFTFSNYGMHWVRQAPGKGLEWVAVIYYDGSNKFYADSVKGRFTISRDNSKNTLYLQMSSLRAEDTAVYYCARDVAPPGSRAEYFHHWGQGTLVTVSS
VL: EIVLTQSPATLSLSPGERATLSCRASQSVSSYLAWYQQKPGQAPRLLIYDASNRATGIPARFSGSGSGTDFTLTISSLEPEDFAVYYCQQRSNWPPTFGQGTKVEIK
notes: also called anti-PTK7 antibody 1A7
B5: 2F5 (antibody, V domains shown)
VH: B4 VH with A23V, V50I, F59Y, S84N, P102A, P103A, F110L
VL: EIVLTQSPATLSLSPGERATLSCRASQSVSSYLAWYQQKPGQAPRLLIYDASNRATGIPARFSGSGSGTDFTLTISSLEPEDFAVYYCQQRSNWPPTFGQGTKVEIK
notes: also called anti-PTK7 antibody 2F5
B6: 2A5 (antibody, V domains shown)
VH: B4 VH with E6Q, Y52W, S56R, F59Y, S84N, P103A, H111Q, H112N
VL: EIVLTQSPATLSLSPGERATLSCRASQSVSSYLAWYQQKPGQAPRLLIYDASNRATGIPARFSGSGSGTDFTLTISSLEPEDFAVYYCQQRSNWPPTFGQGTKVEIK
notes: also called anti-PTK7 antibody 2A5
B7: 2D11 (antibody, V domains shown)
VH: B4 VH with N31S, Y52F, F59Y, S84N, A92S, P102A, H111Q, H112N
VL: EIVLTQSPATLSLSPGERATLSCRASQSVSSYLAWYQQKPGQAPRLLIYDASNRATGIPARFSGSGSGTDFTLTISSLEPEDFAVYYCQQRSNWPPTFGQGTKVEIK
notes: also called anti-PTK7 antibody 2D11
B8: 1F2 (antibody, V domains shown)
VH: QVQLVQSGGGLVQPGGSLRLSCAASGFTFSRYEMNWVRQAPGKGLEWVSYINSIGSAINYADSVKGRFTISRDNAKNSLYLQMRSLRAEDTAVYYCVREDNWNPGYWGQGTLVTVSS
VL: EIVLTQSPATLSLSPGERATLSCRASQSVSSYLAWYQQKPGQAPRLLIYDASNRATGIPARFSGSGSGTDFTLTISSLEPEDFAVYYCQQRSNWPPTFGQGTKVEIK
notes: also called anti-PTK7 antibody 1F2

Target: T1, His-tagged human PTK7 protein
Experiment: BLI Octet binning on hPTK7-His; competitor 3E6
Method: Relative positions of target protein epitope between a pair of purified anti-PTK7 antibodies were analyzed by Biolayer Interferometry (BLI) using ForteBio Octet system at 30° C. A total of […] purified antibodies were used: 1A7, 1A11, 1F2, 2A5, 2D11, 2F5, 3C4 and 3E6.
1×HBS-EP+ buffer (10 mM 4-(2-hydroxyethyl)-1-piperazineethanesulfonic acid (HEPES), 150 mM NaCl, 3 mM ethylenediaminetetraacetic acid (EDTA) and 0.05% P20, pH7.4) diluted from HBS-EP+ buffer (10×) was used as the running buffer throughout the experiment. His-tagged human PTK7 protein was captured at a flow rate of 10 μL/min, and 200 nM of antibody (Analyte 1) was injected at a flow rate of 30 μL/min to bind the ligand. Another antibody (Analyte 2) was injected under the same conditions to determine whether the binding of different antibodies interfered with each other. The binding time was 300 s for each antibody.
The binding value of each antibody was obtained using Data Analysis HT 12.0. To quantify the interference of one antibody binding to another, a binding ratio was calculated to compare each pair of antibodies. The binding ratio is defined as the binding value of the second antibody (Analyte 2), divided by the binding value of the first antibody (Analyte 1). […] In general, antibody pairs that interfere with each other have the same or overlapping epitopes.

Row | binding ratio | Binder
1 | 0.94 | B1
2 | 0.17 | B2
3 | 0.08 | B3
4 | 1.05 | B4
5 | 1.02 | B5
6 | 0.94 | B6
7 | 1.18 | B7
8 | 0.75 | B8

Target: T2, human PTK7 on human cancer cell lines
Experiment: flow cytometry, SK-OV-3 cells, Ab 5 ug/mL
Method: (§1) The binding activity of anti-PTK7 antibodies to cancer cell lines was verified by flow cytometry. […] Purified anti-PTK7 antibody with a concentration of 5 μg/mL was added to each well and was incubated at 4° C. for 30 minutes. […] The cells were collected, and the mean fluorescence intensity (MFI) was determined. Human IgG1 was used as ISO control.

Row | MFI | Binder
9 | 319000 | B1
10 | 304000 | B2
11 | 373000 | B3
12 | 197000 | B4
13 | 178000 | B5
14 | 283000 | B6
15 | 371000 | B7
16 | 210000 | B8

Target: T2, human PTK7 on human cancer cell lines
Experiment: flow cytometry, NCI-N87 cells, Ab 5 ug/mL
Method: as §1

Row | MFI | Binder
17 | 158000 | B1
18 | 139000 | B2
19 | 180000 | B3
20 | 75700 | B4
21 | 69400 | B5
22 | 152000 | B6
23 | 217000 | B7
24 | 108000 | B8

Target: T2, human PTK7 on human cancer cell lines
Experiment: flow cytometry, NCI-H520 cells, Ab 5 ug/mL
Method: as §1

Row | MFI | Binder
25 | 296000 | B1
26 | 282000 | B2
27 | 310000 | B3
28 | 190000 | B4
29 | 199000 | B5
30 | 283000 | B6
31 | 312000 | B7
32 | 216000 | B8
